Publication PMC4838890, “Dynamic and flexible H3K9me3 bridging via HP1β dimerization establishes a plastic state of condensed chromatin” (Nature Communications, 2016)
Read-outs that look alike come from different tables or passages of the source.

Tests used:
H3K9me3 oligonucleosomes = assay: Fluorescence correlation spectroscopy (FCS), H3K9me3 oligonucleosomes; type: biochemical, Xenopus laevis; conditions: 150 mM NaCl
Method: All fluorescence measurements were performed with a pulsed custom-built mode-locked Ti:Sa-Laser and a confocal two-photon fluorescence microscope setup. Detailed description of the experimental setup and the measurement procedure are available on request. In all cases 10 nM of the acceptor labelled species, ATTO 610-labelled nucleosomal array, was incubated with 20–200 μM of recombinant hHP1β in 10 μl of 10 mM triethanolamine HCl (pH 7.5), 0.1 mM EDTA, 150 mM NaCl at 4°C. For each sample the fluorescence correlation curve, fluorescence intensity and anisotropy values were determined at 22°C. Every data point was averaged over a minimum of 15 single measurements of 10 s each. Excitation was by two-photon mode.
The fluorescence data were analysed using the correlation function [drawing 1] , and the equation for free diffusion of particles [drawing 2] , where I(t) is the fluorescence intensity measured at time t, N the particle number, τD the diffusion time, and r0=0.25 the axis ratio of the focal region, considering the dimensions of a Gaussian beam waist.
Supplementary Figure 3: Analysis of chromatin clustering m ediated by hHP1β.
(a) Schematic representation of a stepwise precipitation and resolubilization experiment.
(b) Results of stepwise precipitation and resolubilization after clustering H3K9me3-oligonucleosomes by hHP1β at different concentrations. DNA remaining in the supernatant after centrifugation was incubated with EtBr and measured by fluorescence reading. Data were normalized to amounts present in the input.
Results of a representative experiment are shown.
(c) Instrumental setup used for two -photon fluorescence correlation spectroscopy (FCS). The beam of a pulsed Ti:Sa-Laser is reflected into a water immersion objective (O) via a dichroic mirror (M). The fluorescence light transmitted through this dichroic mirror is split up by a second dichroic mirror. Blow- […]
F: filter, L: lens, M: dichroic mirror, O:objective, PD:
(d) Scheme of the strategy used for FCS measurements. DNA of oligonucleosomes was labeled at the 5’- […]

H3K9me3 peptide = target: T1, H3K9me3 peptide (Homo sapiens, UniProt P68431); assay: SPR, immobilized H3K9me3 peptide; type: binding; conditions: for association kinetics: H3K9me3 surfaces of different density; for dissociation (release from matrix): more pronounced at higher H3K9me3 surface densities
T1 construct: C-terminally biotinylated histone H3 peptides (aa 1–20)
Method: SPR measurements were performed on a Biacore 2000 instrument (GE Healthcare, Buckinghamshire, UK) at 298 K in 10 mM triethanolamine (pH 7.5), 150 mM NaCl, 0.1 mM EDTA, 1 mM DTT, 0.005% (v/v) Tween-20. Biotinylated ligands were immobilized on streptavidin-coated sensor chips SA (GE Healthcare, Buckinghamshire, UK). Before immobilization, sensor chips were conditioned as described by the manufacturer. To obtain low surface densities (5–24 RU), 5 nM biotinylated H3 peptide was injected at a low rate of 10 μl min^−1 using varying contact times. High surface densities (>700 RU) were prepared by injecting […] peptide (10 μl min^−1) until the SA surface was saturated. Peptide-containing chips were regenerated by applying three short pulses of 0.05% (w/v) SDS followed by an injection of 1.5 M NaCl for baseline stabilization. For binding assays, hHP1β proteins were injected at […] (serial twofold dilutions) for 2 min (30 μl/min). Dissociation was recorded for up to 5 min. A streptavidin surface without ligands served as reference. In addition, blank runs were performed for double referencing. Data evaluation was performed by steady-state analysis assuming a Langmuir 1:1 binding model using BIAevaluation 4.1 and Prism 5.04 (GraphPad, CA, USA) software. Binding to the unmodified peptides was analysed with maximum binding (RUmax) set to the corresponding values obtained with the modified peptides.
Figure S8 Hiragami-Hamada et al.
20 30 one site-specific 20 30 one site-specific […]
time [s] concentration [ μM] time [s] concentration [ μM]
40 two site-specific 40 one site-specific […]
time [s] concentration [ μM]
Supplementary Figure 8: hHP1β binds nucleosomes as dimer.
(a) Dynamic light scattering (DLS) analysis of recombinant hHP1β WT (blue) and I161A (red).
(b) SPR response traces of injection of hHP1β WT into Biacore cells containing biotinylated H3K9me3-peptide immobilized on a sensory chip via covalently coated streptavidin. Immobilized peptide was at 24
RU. Injection series are from 0.024 to 50 µM protein concentration.
(c) Blot of signal over concentration of the titration in (b) to deduce an apparent Kd value. Best fitting was achieved by one site-specific binding model.
(d ) Same analysis as in (b) but with hHP1β I161A.
(e) Blot of signal over concentration of the titration in (d) to deduce an apparent Kd value. […]
(also on this page, place not known: dimer . hHP1 β H3K9me3 - se nsory ( b) site -specific ( b) hHP1 β ( d) site -specific hHP1 β modifi ed H3K9me3 -mononucleosomes H3 -tails -30 -50 -8 -4 200 -10 110 -50 -10 -30 [μM] [μM] -10 190 150 -10 110 200 -10 110 μl/min μl/min μl/min -50 150 response [RU] response [RU] response [RU] response [RU] response [RU] [μM] 10 50 response [RU]40 0 0 [μM] 10 30 50 response [RU] 40 0 0 40 [μM] 10 30 50 response [RU] 140 40 0 120 0 40 response [RU] response [RU] response [RU] Kd Kd μM Kd μM 0.8 0.6 0.4 0.2 0 1 1.0 0.8 0.6 0.4 0.2 0.0 mass fraction)

[1] = SPR titration 0.024 to 50 µM, peptide at 24 RU, one site-specific binding model, read-out: apparent Kd (Supplementary Fig. 8c,e)
[2] = SPR, 150 mM NaCl, pH 7.5, 298 K, steady-state, WT value based on fitting to a one site-specific binding model, read-out: Kd (apparent dissociation constant)

Row | Substance | complex formation by clustering (FCS) (H3K9me3 oligonucleosomes) | Kd (H3K9me3 peptide; [1]) [µM] | Kd (H3K9me3 peptide; [2]) [µM] | association kinetics (H3K9me3 peptide; SPR) | dissociation (release from matrix) (H3K9me3 peptide; SPR) | maximum hydrodynamic radius (H3K9me3 oligonucleosomes; 10 nM ATTO 610-labelled array, highest protein concentration) [nm] | EC50 (H3K9me3 oligonucleosomes; 23°C, read-out: half-maximal effect, FCS) [µM] | stronger binding to the H3K9me3 matrix compared with the I161A protein (H3K9me3 peptide; SPR titration) [fold] | binding mode (H3K9me3 peptide; SPR, H3K9me3 peptide and mononucleosome surfaces)
1 | hHP1β I161A: CSD point mutant of hHP1β incapable of dimerization | No such complex formation by clustering | 7.5 | 7 ± 0.4 | very fast association kinetics | dissociated rapidly from the H3K9me3 ligand |  |  |  | 
2 | hHP1β WT: recombinant human heterochromatin protein 1β (GenBank NM_001127228), 185 aa |  | 0.73 | 0.7 ± 0.1 | very fast association kinetics | released more slowly | 450 | 3.5 | 10 | fully consistent with a bivalent interaction mode
